Tests used:
[1] = test system: Site 2 (S2)-cleavage of the Notch3 receptor in HCC2429 and MDA-MB-468 cells; test: S2-cleavage assay (western blot, D11B8); format: cell-based, human; details: 5 μg/ml, 24 hours; FIG. 9
Description: To confirm that binding of anti-Notch3 antibody hu75, but not hu28, to the NRR domain of Notch3 is accompanied by a decrease in S2-cleavage, western blot analysis was performed. The rabbit monoclonal anti-Notch3 antibody D11B8 (Cell Signaling Technologies) recognizes the Notch3 C-terminal fragments that are products of S1 and S2 proteolytic cleavage events. […] The anti-Notch3 antibody hu28 bound to LNR-C and HD1 domains that are located on a linear, covalently linked region of the NRR domain that is N-terminal to the S1-site. An inhibitory antibody is expected to decrease the detection of S2-cleaved Notch3 by stabilizing the NRR domain in an auto-inhibitory conformation thus preventing S2-cleavage, while a non-inhibitory antibody is not expected to have an effect on S2-cleavage.
Site 2 (S2)-cleavage of the Notch3 receptor was assessed by western blot analysis of the protein using the D11B8 (Cell Signaling Technologies) antibody which recognizes an epitope surrounding Glu2312 in the C-terminal domain. HCC2429 and MDA-MB-468 breast cancer cells were used to examine the effects of inhibitory anti-Notch3 antibody hu75 and non-inhibitory anti-Notch3 antibody hu28 on S2-cleavage. For the assay, 1-2.5×10^6 cells were plated in complete growth medium. […] Notch3 was detected with D11B8 antibody and, as a loading control, anti-GAPDH (Sigma) using standard western blot procedures.

[2] = biological target: T1, cell surface Notch3 on HCC2429 cells (Homo sapiens, UniProt Q9UM47); test: Cell-based ELISA, HCC2429 cells; details: Table 29; LB = lacked binding
T1 construct: endogenous Notch3 expressing cell lines, HCC2429 and MDA-MB-468; endogenous in cells; host or cells: HCC2429
T1 sequence (Q9UM47 40-2321): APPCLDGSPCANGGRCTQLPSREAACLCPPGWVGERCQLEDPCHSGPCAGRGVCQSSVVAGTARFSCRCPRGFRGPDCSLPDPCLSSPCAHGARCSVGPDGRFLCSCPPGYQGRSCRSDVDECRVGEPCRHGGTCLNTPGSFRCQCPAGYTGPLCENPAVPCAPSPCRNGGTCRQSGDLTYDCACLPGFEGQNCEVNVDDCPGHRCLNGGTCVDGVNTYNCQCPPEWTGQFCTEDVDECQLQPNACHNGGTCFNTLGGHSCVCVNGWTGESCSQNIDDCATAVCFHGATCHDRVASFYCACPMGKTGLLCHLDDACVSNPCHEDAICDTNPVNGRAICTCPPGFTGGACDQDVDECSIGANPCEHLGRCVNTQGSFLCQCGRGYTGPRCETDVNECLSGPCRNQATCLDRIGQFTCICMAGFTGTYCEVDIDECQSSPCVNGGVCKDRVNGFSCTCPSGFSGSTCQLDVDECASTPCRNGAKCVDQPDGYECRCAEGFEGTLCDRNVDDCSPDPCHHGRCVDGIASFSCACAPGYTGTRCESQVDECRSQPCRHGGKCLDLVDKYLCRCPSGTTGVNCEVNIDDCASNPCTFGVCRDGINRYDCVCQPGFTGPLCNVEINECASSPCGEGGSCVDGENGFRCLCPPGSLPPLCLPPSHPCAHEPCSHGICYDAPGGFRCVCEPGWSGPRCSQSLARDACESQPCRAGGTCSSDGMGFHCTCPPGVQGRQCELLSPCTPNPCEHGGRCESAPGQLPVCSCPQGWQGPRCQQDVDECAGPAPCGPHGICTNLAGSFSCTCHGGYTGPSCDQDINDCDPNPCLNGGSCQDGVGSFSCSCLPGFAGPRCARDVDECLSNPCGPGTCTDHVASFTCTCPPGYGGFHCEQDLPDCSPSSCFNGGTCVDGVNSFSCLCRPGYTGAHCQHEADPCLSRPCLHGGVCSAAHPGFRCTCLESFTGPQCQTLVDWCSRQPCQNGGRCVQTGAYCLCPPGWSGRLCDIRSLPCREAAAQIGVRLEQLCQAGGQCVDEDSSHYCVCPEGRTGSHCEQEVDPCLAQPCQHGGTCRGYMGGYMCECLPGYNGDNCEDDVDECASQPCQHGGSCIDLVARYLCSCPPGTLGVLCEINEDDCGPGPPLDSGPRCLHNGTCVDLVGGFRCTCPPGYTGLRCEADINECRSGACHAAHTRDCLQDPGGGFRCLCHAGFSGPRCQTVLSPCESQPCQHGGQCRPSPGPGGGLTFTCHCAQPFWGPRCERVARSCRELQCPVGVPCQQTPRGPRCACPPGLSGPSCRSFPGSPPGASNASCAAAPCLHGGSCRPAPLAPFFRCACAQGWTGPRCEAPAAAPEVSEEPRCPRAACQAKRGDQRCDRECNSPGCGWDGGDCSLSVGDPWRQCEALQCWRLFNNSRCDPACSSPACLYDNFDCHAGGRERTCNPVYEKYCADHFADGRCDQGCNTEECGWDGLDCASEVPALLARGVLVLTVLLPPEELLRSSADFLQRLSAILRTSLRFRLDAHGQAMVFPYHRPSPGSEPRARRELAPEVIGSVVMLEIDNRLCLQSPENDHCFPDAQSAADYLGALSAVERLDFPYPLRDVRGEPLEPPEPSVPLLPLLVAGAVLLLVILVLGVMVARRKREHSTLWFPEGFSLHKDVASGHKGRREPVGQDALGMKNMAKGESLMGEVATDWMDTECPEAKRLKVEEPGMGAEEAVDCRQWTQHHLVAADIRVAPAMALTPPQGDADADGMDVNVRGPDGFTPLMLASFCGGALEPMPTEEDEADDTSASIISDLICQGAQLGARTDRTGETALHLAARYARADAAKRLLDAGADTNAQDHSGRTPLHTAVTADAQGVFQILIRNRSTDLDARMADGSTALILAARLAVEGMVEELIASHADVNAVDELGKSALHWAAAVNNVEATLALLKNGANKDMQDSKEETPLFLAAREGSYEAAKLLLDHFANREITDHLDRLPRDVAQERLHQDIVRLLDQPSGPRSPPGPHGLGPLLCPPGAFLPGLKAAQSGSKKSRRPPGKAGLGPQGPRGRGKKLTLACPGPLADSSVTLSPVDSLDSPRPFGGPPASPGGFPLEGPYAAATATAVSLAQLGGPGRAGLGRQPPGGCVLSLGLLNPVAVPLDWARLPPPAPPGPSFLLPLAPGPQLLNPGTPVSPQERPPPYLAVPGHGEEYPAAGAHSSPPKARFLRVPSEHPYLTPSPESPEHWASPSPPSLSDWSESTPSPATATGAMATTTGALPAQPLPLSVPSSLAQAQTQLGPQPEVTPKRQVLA
Description: Unconjugated anti-Notch3 antibodies, anti-Notch3 ADCs and a negative control antibody (huNeg8.8) were screened for cell surface binding activity to Notch3 expressing cell lines in a cell-based ELISA. Over-expressing Notch3 cell line, U2OS/hNotch3, and endogenous Notch3 expressing cell lines, HCC2429 and MDA-MB-468, were plated at 50,000, 200,000 and 100,000 cells/well, respectively, in 96 well plates (white opaque, BD/VWR) the day before ELISA assay. On the day of the ELISA, culture media was removed from wells and serially diluted (1:3 in DPBS with calcium chloride and magnesium chloride (Ca/Mg) and 1% BSA) antibody and ADC solutions were applied to the plate. Plates were incubated at room temperature for 2 hours before washed with DPBS with Ca/Mg and 1% BSA. HRP-conjugated secondary antibody was then applied and incubated with cells for 1 hour. Plates were washed with DPBS with Ca/Mg and 1% BSA before being developed with Pico-Chemiluminescent developing kit (Thermal Scientific), and chemiluminescence measurements were performed per manufacturer's instructions. Data plotting and analyses were performed with Microsoft Excel and Graphpad-Prism software.
Unconjugated cysteine mutant humanized anti-Notch3 antibodies were screened for cell surface binding activity to Notch3 expressing cell lines in a cell-based ELISA, as described in previous Examples. […]

HCC2429 = biological target: T2, HCC2429 (Homo sapiens, UniProt Q9UM47); test: Flow cytometry (FACS) binding, HCC2429; details: 4 μg/mL antibody
T2 construct: endogenous Notch3 expressing cell lines, HCC2429 and MDA-MB-468; endogenous in cells; host or cells: HCC2429
T2 sequence (Q9UM47 40-2321): as above
Description: (§1) Unconjugated anti-Notch3 antibodies, hu28 and hu75, were examined for cell surface binding activity to Notch3 expressing cell lines by flow cytometry. Fluorescence activated cell sorting (FACS) analysis was conducted according to standard procedures. Cells were rinsed in HBSS with calcium chloride and magnesium chloride (herein termed HBSS++), harvested using trypsin without EDTA and neutralized with medium containing FBS. Cells were incubated on ice for 30 minutes with 4 μg/mL anti-Notch3 antibodies, hu28 and hu75, in HBSS++containing 3% HICS (heat-inactivated calf serum). Cells were washed three times with cold HBSS++, 3% HICS buffer. Cells were incubated in allophycocyanin-conjugated AffiniPure F(ab′)2 fragment goat anti-human IgG, Fc fragment secondary antibody (Jackson ImmunoResearch Laboratories, Inc., West Grove, Pa.) at 10 μg/mL for 30 minutes on ice in the dark. Cells were washed once with cold HBSS++/3% HICS buffer. Cells were resuspended in HBSS-++/3% HICS, 25 mM HEPES, 1 mM MgCl2 and 25 μg/ml DNaseI. 7-AAD (7-Amino-Actinomycin D) was added for exclusion of nonviable cells. Live cells were analyzed on a BD FACSCalibur flow cytometer (BD Biosciences, San Jose, Calif.). Mean fluorescence intensity (MFI) from channel FL-4 was calculated with FlowJo flow cytometry analysis software (Ashland, Oreg.).

MDA-MB-468/hNotch3 = biological target: T3, MDA-MB-468/hNotch3 (Homo sapiens, UniProt Q9UM47); test: In vitro cytotoxicity (MTS), MDA-MB-468/hNotch3; format: cell-based; details: MDAMB468/hNotch3; data not shown
T3 construct: cell lines engineered to over-express full length human Notch3 protein: MDA-MB-468/hNotch3 and U2OS/hNotch3; expressed in transfected cells; host or cells: MDA-MB-468
T3 sequence (Q9UM47 40-2321): as above
Description: The effects of anti-Notch3 ADCs were assessed on 1) cell lines endogenously expressing Notch3 protein: HCC2429 (lung cancer), OVCAR3 (ovarian cancer) and MDA-MB-468 (breast cancer), 2) cell lines engineered to over-express full length human Notch3 protein: MDA-MB-468/hNotch3 and U2OS/hNotch3, and 3) a negative control cell line (SW900) using an MTS cellular viability indicator (Promega, Madison, Wis.). These cell lines were cultured with increasing concentrations of anti-Notch3 ADCs comprising rat-human chimeric anti-Notch3 antibodies, ch28 and ch75, and humanized anti-Notch3 antibodies, hu28 and hu75, conjugated to various linker-payload combinations of the present invention. As a specificity control for the anti-Notch3-ADCs, non-targeted control-ADCs (huNeg8.8-ADCs or ch2H6-ADCs) were also tested on the same cell lines. After four days, viability of each culture was assessed. IC50 values were calculated by logistic non-linear regression, model #203 with XL fit v4.2 (IDBS, Guildford, Surry, UK) and presented as ng Ab/mL. The drug antibody ratio (DAR) is also provided.

U2OS/hNotch3 = U2OS/hNotch3 (Homo sapiens, UniProt Q9UM47); test: Flow cytometry (FACS) binding, U2OS/hNotch3; set-up: U-2 OS cells stably over-expressing human full length Notch3 protein on cell surface; expressed in transfected cells; host or cells: U-2 OS (human osteosarcoma); details: 4 μg/mL antibody; positive control cell line
Chain of U2OS/hNotch3 (Q9UM47 40-2321): as above
Description: as §1

- EC50 [2]: 0.1 nM
- MFI (HCC2429): 564
- MFI (U2OS/hNotch3): 256
B1: hu28 VH1.0/VL1.0: humanized r28 variant VH1.0/VL1.0, anti-Notch3 antibody (VH SEQ ID NO: 13, VL SEQ ID NO: 25) (antibody, V domains shown)
VH: EVQLVESGGGLVQPGGSLRLSCAASGFTFRDYGMTWVRQAPGKGLEWVAYISSGSNYIYYAEAVKGRFTISRDNAKNSLYLQMNSLRAEDTAVYYCARRGPFVLDAWGQGTLVTVSS
VL: DIQMTQSPSSLSASVGDRVTITCKASQSINRYLHWYQQKPGKAPKLLIYNANGLQTGVPSRFSGSGSGTDFTLTISSLQPEDFATYYCLQHNTWPDTFGGGTKVEIK
- detection of S1- and S2-cleaved Notch3 C-terminal fragments [1]: both S1- and S2-cleaved Notch3 C-terminal fragments were detected
- effect of unconjugated antibody on viability (MDA-MB-468/hNotch3): did not affect the viability
